Results reported in US8217137B2, “Fullerene-based amino acids” (William Marsh Rice University, priority 2004, dated 2012).
Square brackets hold non-standard residues; d marks the D form. Ends that are not written are not given here. BAA = bucky amino acid

Test system: Rat maxillary incisor pulp cells (RPC-C2A)
Test: Cell viability assay (Live-Dead Assay Kit), cytotoxicity of fullerene peptide
Format: cell-based
Conditions: 4, 40 and 400 μM peptide solutions in PBS, 100 μL mixed with 1.9 mL medium, 48 hrs incubation, Calcein AM / EthD-1
Protocol: Rat maxillary incisor pulp cells (RPC-C2A) were seeded on a 24-well tissue culture plate at 3540 cells per well and incubated for 24 hr at 37° C. in a 5% CO2 environment. Dulbecco's Modified Eagle's Medium (DMEM; Invitrogen, NY) was prepared with 10% fetal bovine serum (FBS; BioWhitaker, Walkersville, Md.), 2 mM Amphothericin B, 1 unit/ml penicillin, and 100 mg/l streptomycin (Invitrogen, NY). Three different concentrations of Fullerene peptide solutions (4, 40, and 400 μM) were prepared in PBS and sterilized using 0.2 μm filter syringe. 100 μL of the solution was mixed with 1.9 mL of medium and added to cells. Control was also prepared by adding PBS buffer solution without peptide-modified fullerene to cells. After 48 hrs of incubation, cell viability was determined using Live-Dead Assay Kit (Molecular Probes, Inc., Eugene, Oreg.). Calcein AM is converted to a green fluorescent product within live cells due to enzymatic activity, while ethidium homodimer-1, a red fluorescent compound, accumulates in dead cells due to increased membrane permeability. After removing medium, cells were rinsed with PBS solution twice. Cells in each well was incubated with 0.4 mL of 4 μM EthD-1 and 2 μM of Calcein AM in PBS for 30 min and observed under fluorescent microscope.
For the statistical analysis, the data were compared with two-tailed, unpaired t-tests. […]

BAA-Glu-Glu-Glu-Glu-Gly-Gly-Gly-Ser-COOH ([BAA]EEEEGGGS-OH) [fullerene-based peptide, peptide with a bucky amino acid (BAA) at the N-terminus]
toxicity to the cells (cell viability): no toxicity
